# Variants at the floor of the assay were thinned out.
# Columns and labels:
# biotinyl-Met-oxazolone = assay: self-aminoacylation, catalytic enhancement (BMO) (fold over background); higher = more active; k-Seq, kA / k0A0; sequences stand for … in GGGAAUGGAUCCACAUCUACGAAUUC…UUCACUGCAGACUUGACGAAGCUG
# Procedure, shortened: (§1)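 Mutagenized RNA pools with a 21-nt variable region (0.43 μM) reacted with each biotinyl-aminoacyl-oxazolone at 2–1250 μM. Reactions ran in 50 μL HEPES/NaCl/KCl/MgCl2/CaCl2 buffer with 5% acetonitrile, pH 6.9–7.0, for 90 minutes at room temperature. Streptavidin-captured RNA was quantified by triplicate qPCR and Illumina sequencing, and per-sequence fraction reacted was fit to a pseudo-first-order model with 1000 bootstraps. Catalytic enhancement is median kA divided by the uncatalyzed rate, the low-activity peak of a bimodal Gaussian fit.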
# biotinyl-Ile-oxazolone = assay: self-aminoacylation, catalytic enhancement (BIO) (fold over background); higher = more active; k-Seq, kA / k0A0; sequences stand for … in GGGAAUGGAUCCACAUCUACGAAUUC…UUCACUGCAGACUUGACGAAGCUG
# Procedure, shortened: as §1
# biotinyl-Leu-oxazolone = assay: self-aminoacylation, catalytic enhancement (BLO) (fold over background); higher = more active; k-Seq, kA / k0A0; sequences stand for … in GGGAAUGGAUCCACAUCUACGAAUUC…UUCACUGCAGACUUGACGAAGCUG
# Procedure, shortened: as §1
# biotinyl-Val-oxazolone = assay: self-aminoacylation, catalytic enhancement (BVO) (fold over background); higher = more active; k-Seq, kA / k0A0; sequences stand for … in GGGAAUGGAUCCACAUCUACGAAUUC…UUCACUGCAGACUUGACGAAGCUG
# Procedure, shortened: as §1
# biotinyl-Trp-oxazolone = assay: self-aminoacylation, catalytic enhancement (BWO) (fold over background); higher = more active; k-Seq, kA / k0A0; sequences stand for … in GGGAAUGGAUCCACAUCUACGAAUUC…UUCACUGCAGACUUGACGAAGCUG
# Procedure, shortened: as §1
# biotinyl-Phe-oxazolone = assay: self-aminoacylation, catalytic enhancement (BFO) (fold over background); higher = more active; k-Seq, kA / k0A0; sequences stand for … in GGGAAUGGAUCCACAUCUACGAAUUC…UUCACUGCAGACUUGACGAAGCUG
# Procedure, shortened: as §1
Sequence,self-aminoacylation (biotinyl-Met-oxazolone),self-aminoacylation (biotinyl-Ile-oxazolone),self-aminoacylation (biotinyl-Leu-oxazolone),self-aminoacylation (biotinyl-Val-oxazolone),self-aminoacylation (biotinyl-Trp-oxazolone),self-aminoacylation (biotinyl-Phe-oxazolone)
AUUCAGCUAGGUAAUCGGGUG [Fam2.2 aminoacylation ribozyme variant],4.03,2.69,4.57,2.65,4.43,23.8
AUUCAGCUAGGUCAUAGGGUG [Fam2.2 aminoacylation ribozyme variant],1.09,0.975,1.24,1.23,1.17,1.15
AUUCAGCUAGGUCAUUGGGUG [Fam2.2 aminoacylation ribozyme variant],2.62,2.04,2.38,2.55,3.25,15
AUUCAGCUAGGUCGUCGGGUG [Fam2.2 aminoacylation ribozyme variant],3.24,2.53,3.24,2.62,3.08,13.1
AUUCAGCUAGGUGAUCGGGUG [Fam2.2 aminoacylation ribozyme variant],4.52,3.84,5.32,4.04,4.6,25.3
AUUCAGCUAUGUCAUCGGGUG [Fam2.2 aminoacylation ribozyme variant],3.17,2.19,3.03,2.63,3.19,16.6
AUUCAGUUAGGUCAUCGGGUG [Fam2.2 aminoacylation ribozyme variant],3.8,3.04,4.86,3.12,4.04,25.6
AUUCAUCUAAGUCAUCGGGUG [Fam2.2 aminoacylation ribozyme variant],10.9,6.41,15,5.64,10.9,86.6
AUUCAUCUACGUCAUCGGGUG [Fam2.2 aminoacylation ribozyme variant],6.12,3.69,8.74,3.82,7.17,53
AUUCAUCUAGGUCACCGGGUG [Fam2.2 aminoacylation ribozyme variant],5.35,3.85,6.82,3.34,5.32,36.8
AUUCAUCUAGGUCAUCGGGUC [Fam2.2 aminoacylation ribozyme variant],1.21,1.07,1.22,1.28,1.02,2.17
AUUCAUCUAGGUCAUCGGGUG [Fam2.2 aminoacylation ribozyme variant],7.46,4.88,9.76,4.7,7.12,39.2
AUUCAUCUAGGUCGUCGGGUG [Fam2.2 aminoacylation ribozyme variant],2.1,1.93,2.27,1.86,1.68,4.73
AUUCCCAUGGUCAUCGAGUGA [Fam2.1 aminoacylation ribozyme variant],10.4,5.75,11.3,5.75,12.9,51.4
AUUCCCCCAGGUCAUCGGGUG [Fam2.2 aminoacylation ribozyme variant],17.1,14,24.7,11.4,17.1,174
AUUCCCCUAGAUCAUCGGGUG [Fam2.2 aminoacylation ribozyme variant],9.42,7.3,11.9,6.64,9.85,75.1
AUUCCCCUAGGGCAUCGGGUG [Fam2.2 aminoacylation ribozyme variant],10.3,7.87,12.4,6.4,10.4,42.8
AUUCCCCUAGGUCACCGGGUG [Fam2.2 aminoacylation ribozyme variant],20.3,13.9,26.2,13.4,21.7,163
AUUCCCCUAGGUCAUAGGGUG [Fam2.2 aminoacylation ribozyme variant],4.99,3.38,6.57,3.08,4.78,17.1
AUUCCCCUAGGUCAUCGGGGG [Fam2.2 aminoacylation ribozyme variant],8.39,8.54,13.3,10.2,13.6,51.6
AUUCCCCUAGGUCAUCGGGUC [Fam2.2 aminoacylation ribozyme variant],4.08,4.5,5.52,5.52,4,22.8
AUUCCCCUAGGUCAUGGGGUG [Fam2.2 aminoacylation ribozyme variant],19,11.3,24.7,11.1,15.8,167
AUUCCCCUAGGUCCUCGGGUG [Fam2.2 aminoacylation ribozyme variant],26.9,19.6,37.9,17.1,24.6,241
AUUCCCCUAGGUCUUCGGGUG [Fam2.2 aminoacylation ribozyme variant],19.3,13.7,26.7,13.9,21.8,127
AUUCCCCUCGUCAUCGAGUGA [Fam2.1 aminoacylation ribozyme variant],4.49,3.49,4.4,3.46,5.17,15.8

# — the supplement of paper PMC9233669
